Data taken from US20260169005A1.

What was measured:
MSLN [1] = assay: ELISA on MSLN at pH 6, column 6.25 nM
MSLN [2] = assay: ELISA on MSLN at pH 6, column 1.5625 nM
MSLN [3] = assay: ELISA on MSLN at pH 6, column 100 nM
MSLN [4] = assay: ELISA on MSLN at pH 7, column 6.25 nM
MSLN [5] = assay: ELISA on MSLN at pH 7, column 100 nM
MSLN [6] = assay: ELISA on MSLN at pH 6, column 25 nM
MSLN [7] = assay: ELISA on MSLN at pH 7, column 25 nM
MSLN [8] = assay: ELISA on MSLN at pH 7, column 1.5625 nM

- ELISA reading at 6.25nM, pH=6 (MSLN [1]): 0.0183
- ELISA reading at 1.5625nM, pH=6 (MSLN [2]): 0.026
- ELISA reading at 100nM, pH=6 (MSLN [3]): 0.0154
- ELISA reading at 6.25nM, pH=7 (MSLN [4]): 0.0318
- ELISA reading at 100nM, pH=7 (MSLN [5]): 0.0239
- ELISA reading at 25nM, pH=6 (MSLN [6]): 0.0152
- ELISA reading at 25nM, pH=7 (MSLN [7]): 0.0354
- ELISA reading at 1.5625nM, pH=7 (MSLN [8]): 0.0385
Substance: NC
